Assay results published in patent US20260242735A1.

What was measured:
Test in all cases: flow cytometry, HEK293-T, alanine scan
human CD33 R296A (human) = human CD33 R296A (human) (UniProt P20138)
human CD33 V294A (human) = human CD33 V294A (human) (UniProt P20138)
human CD33 S305A (human) = human CD33 S305A (human) (UniProt P20138)
human CD33 L275A (human) = human CD33 L275A (human) (UniProt P20138)
human CD33 S326A (human) = human CD33 S326A (human) (UniProt P20138)
human CD33 T331A (human) = human CD33 T331A (human) (UniProt P20138)
human CD33 K283A (human) = human CD33 K283A (human) (UniProt P20138)
human CD33 I278A (human) = human CD33 I278A (human) (UniProt P20138)
human CD33 S307A (human) = human CD33 S307A (human) (UniProt P20138)
human CD33 A272S (human) = human CD33 A272S (human) (UniProt P20138)
human CD33 R286A (human) = human CD33 R286A (human) (UniProt P20138)
human CD33 K315A (human) = human CD33 K315A (human) (UniProt P20138)
human CD33 E333A (human) = human CD33 E333A (human) (UniProt P20138)
human CD33 H310A (human) = human CD33 H310A (human) (UniProt P20138)
human CD33 P319A (human) = human CD33 P319A (human) (UniProt P20138)
human CD33 H339A (human) = human CD33 H339A (human) (UniProt P20138)
human CD33 V282A (human) = human CD33 V282A (human) (UniProt P20138)
human CD33 T299A (human) = human CD33 T299A (human) (UniProt P20138)
human CD33 F280A (human) = human CD33 F280A (human) (UniProt P20138)
human CD33 I281A (human) = human CD33 I281A (human) (UniProt P20138)
human CD33 T322A (human) = human CD33 T322A (human) (UniProt P20138)
human CD33 P308A (human) = human CD33 P308A (human) (UniProt P20138)
human CD33 K312A (human) = human CD33 K312A (human) (UniProt P20138)
human CD33 N297A (human) = human CD33 N297A (human) (UniProt P20138)
human CD33 L338A (human) = human CD33 L338A (human) (UniProt P20138)
human CD33 L273A (human) = human CD33 L273A (human) (UniProt P20138)
human CD33 Y340A (human) = human CD33 Y340A (human) (UniProt P20138)
human CD33 V332A (human) = human CD33 V332A (human) (UniProt P20138)
human CD33 C276A (human) = human CD33 C276A (human) (UniProt P20138)
human CD33 R291A (human) = human CD33 R291A (human) (UniProt P20138)
human CD33 A290S (human) = human CD33 A290S (human) (UniProt P20138)
human CD33 L271A (human) = human CD33 L271A (human) (UniProt P20138)
human CD33 S324A (human) = human CD33 S324A (human) (UniProt P20138)
human CD33 A328S (human) = human CD33 A328S (human) (UniProt P20138)
human CD33 H285A (human) = human CD33 H285A (human) (UniProt P20138)
human CD33 T292A (human) = human CD33 T292A (human) (UniProt P20138)
human CD33 E321A (human) = human CD33 E321A (human) (UniProt P20138)
human CD33 T284A (human) = human CD33 T284A (human) (UniProt P20138)
human CD33 E336A (human) = human CD33 E336A (human) (UniProt P20138)
human CD33 H317A (human) = human CD33 H317A (human) (UniProt P20138)
human CD33 S342A (human) = human CD33 S342A (human) (UniProt P20138)
human CD33 K313A (human) = human CD33 K313A (human) (UniProt P20138)
human CD33 T303A (human) = human CD33 T303A (human) (UniProt P20138)
human CD33 N344A (human) = human CD33 N344A (human) (UniProt P20138)
human CD33 A289S (human) = human CD33 A289S (human) (UniProt P20138)
human CD33 C325A (human) = human CD33 C325A (human) (UniProt P20138)
Sequence of human CD33 C325A (human) (P20138 18-364 C325A limits assumed): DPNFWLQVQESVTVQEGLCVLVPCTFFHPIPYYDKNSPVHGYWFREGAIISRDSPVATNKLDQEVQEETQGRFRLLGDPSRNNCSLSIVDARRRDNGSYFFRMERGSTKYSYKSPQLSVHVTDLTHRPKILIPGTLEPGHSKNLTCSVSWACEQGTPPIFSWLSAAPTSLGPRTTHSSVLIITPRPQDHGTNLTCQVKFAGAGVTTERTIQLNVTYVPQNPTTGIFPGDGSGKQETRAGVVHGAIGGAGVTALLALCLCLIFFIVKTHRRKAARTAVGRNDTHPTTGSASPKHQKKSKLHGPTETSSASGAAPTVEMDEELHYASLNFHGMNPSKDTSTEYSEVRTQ

Sequence of human CD33 S307A (human) (P20138 18-364 S307A limits assumed): as the sequence (P20138 18-364 C325A limits assumed) above, with S290A, A308C counted along it
Sequence of human CD33 R296A (human) (P20138 18-364 R296A limits assumed): as the sequence (P20138 18-364 C325A limits assumed) above, with R279A, A308C counted along it
Sequence of human CD33 P308A (human) (P20138 18-364 P308A limits assumed): as the sequence (P20138 18-364 C325A limits assumed) above, with P291A, A308C counted along it
Sequence of human CD33 T331A (human) (P20138 18-364 T331A limits assumed): as the sequence (P20138 18-364 C325A limits assumed) above, with A308C, T314A counted along it
Sequence of human CD33 E336A (human) (P20138 18-364 E336A limits assumed): as the sequence (P20138 18-364 C325A limits assumed) above, with A308C, E319A counted along it
Sequence of human CD33 L338A (human) (P20138 18-364 L338A limits assumed): as the sequence (P20138 18-364 C325A limits assumed) above, with A308C, L321A counted along it
Sequence of human CD33 N297A (human) (P20138 18-364 N297A limits assumed): as the sequence (P20138 18-364 C325A limits assumed) above, with N280A, A308C counted along it
Sequence of human CD33 T284A (human) (P20138 18-364 T284A limits assumed): as the sequence (P20138 18-364 C325A limits assumed) above, with T267A, A308C counted along it
Sequence of human CD33 S324A (human) (P20138 18-364 S324A limits assumed): as the sequence (P20138 18-364 C325A limits assumed) above, with S307A, A308C counted along it
Sequence of human CD33 E321A (human) (P20138 18-364 E321A limits assumed): as the sequence (P20138 18-364 C325A limits assumed) above, with E304A, A308C counted along it
Sequence of human CD33 H310A (human) (P20138 18-364 H310A limits assumed): as the sequence (P20138 18-364 C325A limits assumed) above, with H293A, A308C counted along it
Sequence of human CD33 L275A (human) (P20138 18-364 L275A limits assumed): as the sequence (P20138 18-364 C325A limits assumed) above, with L258A, A308C counted along it
Sequence of human CD33 A328S (human) (P20138 18-364 A328S limits assumed): as the sequence (P20138 18-364 C325A limits assumed) above, with A308C, A311S counted along it

For Refmab #7 (WM53) (antibody), the Mean % WT Binding (human CD33 R296A (human)) was 93.6 % WT binding, the Mean % WT Binding (human CD33 V294A (human)) was 126 % WT binding and the Mean % WT Binding (human CD33 S305A (human)) was 106 % WT binding. It also gave a Mean % WT Binding (human CD33 L275A (human)) of 106 % WT binding, a Mean % WT Binding (human CD33 S326A (human)) of 103 % WT binding and a Mean % WT Binding (human CD33 T331A (human)) of 108 % WT binding. It also gave a Mean % WT Binding (human CD33 K283A (human)) of 117 % WT binding, a Mean % WT Binding (human CD33 I278A (human)) of 93.2 % WT binding and a Mean % WT Binding (human CD33 S307A (human)) of 91.7 % WT binding. It also gave a Mean % WT Binding (human CD33 A272S (human)) of 113 % WT binding, a Mean % WT Binding (human CD33 R286A (human)) of 134 % WT binding and a Mean % WT Binding (human CD33 K315A (human)) of 112 % WT binding. The Mean % WT Binding (human CD33 E333A (human)) was 91 % WT binding, the Mean % WT Binding (human CD33 H310A (human)) was 90.4 % WT binding and the Mean % WT Binding (human CD33 P319A (human)) was 114 % WT binding. The Mean % WT Binding (human CD33 H339A (human)) was 133 % WT binding, the Mean % WT Binding (human CD33 V282A (human)) was 106 % WT binding and the Mean % WT Binding (human CD33 T299A (human)) was 109 % WT binding. For the same substance, the Mean % WT Binding (human CD33 F280A (human)) was 104 % WT binding, the Mean % WT Binding (human CD33 I281A (human)) was 110 % WT binding and the Mean % WT Binding (human CD33 T322A (human)) was 102 % WT binding. The Mean % WT Binding (human CD33 P308A (human)) was 111 % WT binding, the Mean % WT Binding (human CD33 K312A (human)) was 101 % WT binding and the Mean % WT Binding (human CD33 N297A (human)) was 81.2 % WT binding. For the same substance, the Mean % WT Binding (human CD33 L338A (human)) was 124 % WT binding, the Mean % WT Binding (human CD33 L273A (human)) was 92.5 % WT binding and the Mean % WT Binding (human CD33 Y340A (human)) was 112 % WT binding. It also gave a Mean % WT Binding (human CD33 V332A (human)) of 112 % WT binding, a Mean % WT Binding (human CD33 C276A (human)) of 110 % WT binding and a Mean % WT Binding (human CD33 R291A (human)) of 120 % WT binding. The Mean % WT Binding (human CD33 A290S (human)) was 98 % WT binding, the Mean % WT Binding (human CD33 L271A (human)) was 113 % WT binding and the Mean % WT Binding (human CD33 S324A (human)) was 99.2 % WT binding. For the same substance, the Mean % WT Binding (human CD33 A328S (human)) was 119 % WT binding, the Mean % WT Binding (human CD33 H285A (human)) was 109 % WT binding and the Mean % WT Binding (human CD33 T292A (human)) was 119 % WT binding. The Mean % WT Binding (human CD33 E321A (human)) was 109 % WT binding, the Mean % WT Binding (human CD33 T284A (human)) was 120 % WT binding and the Mean % WT Binding (human CD33 E336A (human)) was 98.4 % WT binding. The Mean % WT Binding (human CD33 H317A (human)) was 112 % WT binding, the Mean % WT Binding (human CD33 S342A (human)) was 95.2 % WT binding and the Mean % WT Binding (human CD33 K313A (human)) was 108 % WT binding. For the same substance, the Mean % WT Binding (human CD33 T303A (human)) was 77.1 % WT binding, the Mean % WT Binding (human CD33 N344A (human)) was 108 % WT binding and the Mean % WT Binding (human CD33 A289S (human)) was 107 % WT binding. For the same substance, the Mean % WT Binding (human CD33 C325A (human)) was 101 % WT binding.
